Each block holds one binder with its values, some of them ahead of it.
What was measured:
[1] = target: T1, human CLEC12A expressed on cells (human, UniProt Q5QGZ9 1-265); test: flow cytometry on Ba/F3-hCLEC12A cells, fold over background
T1 construct: Transduced isogenic cells or endogenous expression on AML cells; also called RMA-hCLEC12A; Ba/F3-hCLEC12A
T1 sequence: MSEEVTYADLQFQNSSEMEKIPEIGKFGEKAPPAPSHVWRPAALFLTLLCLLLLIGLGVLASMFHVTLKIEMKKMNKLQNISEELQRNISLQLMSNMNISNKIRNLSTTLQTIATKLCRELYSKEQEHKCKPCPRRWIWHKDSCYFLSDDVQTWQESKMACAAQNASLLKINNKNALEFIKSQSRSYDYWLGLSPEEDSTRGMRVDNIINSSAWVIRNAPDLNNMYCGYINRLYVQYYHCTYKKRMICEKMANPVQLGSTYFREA

[2] = target: T1, human CLEC12A expressed on cells; test: flow cytometry on HL-60 cells, fold over background
[3] = target: T2, human CLEC12A on cells (HL60, PL21, Ba/F3-hCLEC12A) (human, UniProt Q5QGZ9 1-265); test: flow cytometry, Ba/F3-hCLEC12A cells
T2 construct: Endogenous on the AML lines HL60 and PL21; brought into mouse Ba/F3 cells by retroviral transduction; The cell line stands under assay; also called CLL-1
T2 sequence: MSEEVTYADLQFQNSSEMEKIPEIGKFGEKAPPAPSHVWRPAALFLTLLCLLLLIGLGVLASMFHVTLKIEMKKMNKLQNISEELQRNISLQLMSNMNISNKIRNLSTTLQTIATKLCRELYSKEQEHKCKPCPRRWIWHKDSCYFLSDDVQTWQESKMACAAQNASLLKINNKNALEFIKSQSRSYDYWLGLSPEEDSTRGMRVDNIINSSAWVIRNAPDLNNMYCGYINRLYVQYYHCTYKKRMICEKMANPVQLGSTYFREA

[4] = target: T2, human CLEC12A on cells (HL60, PL21, …); test: flow cytometry, 40 nM, MFI after 2 h 37 C relative to 2 h on ice, HL60 cells
[5] = target: T2, human CLEC12A on cells (HL60, PL21, …); test: flow cytometry, PL21 cells
[6] = target: T2, human CLEC12A on cells (HL60, PL21, …); test: flow cytometry, HL60 cells
[7] = target: T2, human CLEC12A on cells (HL60, PL21, …); test: flow cytometry, 40 nM, MFI after 2 h 37 C relative to 2 h on ice, PL21 cells
[8] = target: T1, human CLEC12A expressed on cells; test: flow cytometry on RMA-hCLEC12A cells
[9] = target: T3, recombinant human CLEC12A-His (human, UniProt Q5QGZ9 65-265); test: SPR screening, semi-purified
T3 construct: also called hCLEC12A-His; hCLEC12A
T3 sequence: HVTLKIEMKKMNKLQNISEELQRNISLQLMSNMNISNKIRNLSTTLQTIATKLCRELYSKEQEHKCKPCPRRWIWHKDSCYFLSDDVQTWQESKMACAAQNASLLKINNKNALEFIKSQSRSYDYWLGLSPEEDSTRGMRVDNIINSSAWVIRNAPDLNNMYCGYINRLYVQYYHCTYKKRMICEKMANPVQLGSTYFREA

[10] = target: T3, recombinant human CLEC12A-His; test: SPR, purified murine mAb
[11] = target: T4, recombinant cynomolgus CLEC12A-His (cynomolgus monkey, UniProt A0A2K5WXQ4 71-271); test: SPR, purified murine mAb
T4 construct: also called cCLEC12A-His; cCLEC12A
T4 sequence: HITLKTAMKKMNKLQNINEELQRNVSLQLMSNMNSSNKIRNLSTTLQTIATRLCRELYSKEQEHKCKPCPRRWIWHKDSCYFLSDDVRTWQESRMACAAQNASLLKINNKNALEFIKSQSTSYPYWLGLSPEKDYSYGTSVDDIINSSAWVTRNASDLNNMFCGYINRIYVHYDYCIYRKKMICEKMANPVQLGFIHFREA

EC50 (read off the curve) [1]: ~0.8 nM
EC50 (read off the curve) [2]: ~0.5 nM
B1: AB0306 (antibody, IgG1, V domains shown)
VH: EVQLVESGGGVVQPGGSLRLSCAASGFTFNAFGMHWVRQAPGKGLEWVAFISSGSTSIYYANTVKGRFTISRDNSKNTLYLQMNSLRAEDTAVYYCARDGYPTGGAMDYWGQGTSVTVSS
VL: DIQMTQSPSSLSASVGDRVTITCKASQDIYNYLSWFQQKPGKAPKPLIYRANILVSGVPSRFSGSGSGQDYTFTISSLQPEDIATYYCLQFDAFPFTFGSGTKLEIK
notes: hIgG1 mAb; also called Humanized 1797 anti-CLEC12A mAb; parental mAb of AB0192

EC50 [3]: 0.68 nM
FOB (fold over background) [3]: 303 fold
percent surface retention [4]: 114%
EC50 [5]: 0.18 nM
FOB (fold over background) [5]: 12 fold
EC50 [6]: 0.26 nM
FOB (fold over background) [6]: 47 fold
percent surface retention [7]: 106%
B2: AB0306 mAb (Humanized 1797 anti-CLEC12A mAb) (antibody, IgG1, V domains shown)
VH: EVQLVESGGGVVQPGGSLRLSCAASGFTFNAFGMHWVRQAPGKGLEWVAFISSGSTSIYYANTVKGRFTISRDNSKNTLYLQMNSLRAEDTAVYYCARDGYPTGGAMDYWGQGTSVTVSS
VL: DIQMTQSPSSLSASVGDRVTITCKASQDIYNYLSWFQQKPGKAPKPLIYRANILVSGVPSRFSGSGSGQDYTFTISSLQPEDIATYYCLQFDAFPFTFGSGTKLEIK
notes: Parental hIgG1 mAb of AB0192; also called parental mAb of AB0192

EC50 (read off the curve) [8]: ~10 nM
Kd [9]: 2.7 nM
koff [9]: 0.0013 s⁻¹
kon [9]: 480000 M⁻¹ s⁻¹
B3: F3'-1304 (other)
chain: DIQMTQSPSSLSASVGDRVTITCHASQNINFWLSWYQQKPGKIPKLLIYEASNLHTGVPSRFSGSGSGTRFTLTISSLQPEDIATYYCQQSHSYPLTFGCGTKLEIKGGGGSGGGGSGGGGSGGGGSQLQLQESGPGLVKPSETLSLTCTVSGFSLTNYGLHWIRQPPGKCLEWIGVIWSGGKTDYNPSLKSRVTISKDTSKNQFSLKLSSVQAADTAVYYCAKYDYDDSLDYWGQGTLVTVSSGSDKTHTCPPCPAPELLGGPSVFLFPPKPKDTLMISRTPEVTCVVVDVSHEDPEVKFNWYVDGVEVHNAKTKPREEQYNSTYRVVSVLTVLHQDWLNGKEYKCKVSNKALPAPIEKTISKAKGQPREPRVYTLPPCRDELTKNQVSLTCLVKGFYPSDIAVEWESNGQPENNYKTTPPVLVSDGSFTLYSKLTVDKSRWQQGNVFSCSVMHEALHNHYTQKSLSLSPG
heavy: EVQLVESGGGLVKPGGSLRLSCAASGFTFSSYSMNWVRQAPGKGLEWVSSISSSSSYIYYADSVKGRFTISRDNAKNSLYLQMNSLRAEDTAVYYCARGAPIGAAAGWFDPWGQGTLVTVSSASTKGPSVFPLAPSSKSTSGGTAALGCLVKDYFPEPVTVSWNSGALTSGVHTFPAVLQSSGLYSLSSVVTVPSSSLGTQTYICNVNHKPSNTKVDKKVEPKSCDKTHTCPPCPAPELLGGPSVFLFPPKPKDTLMISRTPEVTCVVVDVSHEDPEVKFNWYVDGVEVHNAKTKPREEQYNSTYRVVSVLTVLHQDWLNGKEYKCKVSNKALPAPIEKTISKAKGQPREPQVCTLPPSRDELTENQVSLTCLVKGFYPSDIAVEWESNGQPENNYKTTPPVLDSDGSFFLYSWLTVDKSRWQQGNVFSCSVMHEALHNHYTQKSLSLSPG
light: DIQMTQSPSSVSASVGDRVTITCRASQGISSWLAWYQQKPGKAPKLLIYAASSLQSGVPSRFSGSGSGTDFTLTISSLQPEDFATYYCQQGVSFPRTFGGGTKVEIKRTVAAPSVFIFPPSDEQLKSGTASVVCLLNNFYPREAKVQWKVDNALQSGNSQESVTEQDSKDSTYSLSSTLTLSKADYEKHKVYACEVTHQGLSSPVTKSFNRGEC
notes: As F3'-1292

Kd [10]: 1.6 nM
koff [10]: 0.000494 s⁻¹
kon [10]: 301000 M⁻¹ s⁻¹
Kd [11]: 3.3 nM
koff [11]: 0.000659 s⁻¹
kon [11]: 196000 M⁻¹ s⁻¹
B4: 15A10.G8 (antibody, V domains shown)
VH: EVQLQESGAELVRSGASIKLSCAASAFNIKDYFIHWVRQRPDQGLEWIGWIDPENDDTEYAPKFQDKATMTADTSSNTAYLQLSSLTSADTAVYYCNALWSRGGYFDYWGQGTTLTVSS
VL: EVLLTQSPAIIAASPGEKVTITCSARSSVSYMSWYQQKPGSSPKIWIYGISKLASGVPARFSGSGSGTYFSFTINNLEAEDVATYYCQQRSYYPFTFGSGTKLEIK
notes: Murine mAb

— patent US20220119534A1 (DRAGONFLY THERAPEUTICS, published 2022)
